# Source: IntAct's records for PubMed 15660133
# B1: Protein phosphatase Slingshot homolog 1 (Homo sapiens), Q8WYL5 (parent)
# chain: MALVTLQRSPTPSAASSSASNSELEAGSEEDRKLNLSLSESFFMVKGAALFLQQGSSPQGQRSLQHPHKHAGDLPQHLQVMINLLRCEDRIKLAVRLESAWADRVRYMVVVYSSGRQDTEENILLGVDFSSKESKSCTIGMVLRLWSDTKIHLDGDGGFSVSTAGRMHIFKPVSVQAMWSALQVLHKACEVARRHNYFPGGVALIWATYYESCISSEQSCINEWNAMQDLESTRPDSPALFVDKPTEGERTERLIKAKLRSIMMSQDLENVTSKEIRNELEKQMNCNLKELKEFIDNEMLLILGQMDKPSLIFDHLYLGSEWNASNLEELQGSGVDYILNVTREIDNFFPGLFAYHNIRVYDEETTDLLAHWNEAYHFINKAKRNHSKCLVHCKMGVSRSASTVIAYAMKEFGWPLEKAYNYVKQKRSITRPNAGFMRQLSEYEGILDASKQRHNKLWRQQTDSSLQQPVDDPAGPGDFLPETPDGTPESQLPFLDDAAQPGLGPPLPCCFRRLSDPLLPSPEDETGSLVHLEDPEREALLEEAAPPAEVHRPARQPQQGSGLCEKDVKKKLEFGSPKGRSGSLLQVEETEREEGLGAGRWGQLPTQLDQNLLNSENLNNNSKRSCPNGMEDDAIFGILNKVKPSYKSCADCMYPTASGAPEASRERCEDPNAPAICTQPAFLPHITSSPVAHLASRSRVPEKPASGPTEPPPFLPPAGSRRADTSGPGAGAALEPPASLLEPSRETPKVLPKSLLLKNSHCDKNPPSTEVVIKEESSPKKDMKPAKDLRLLFSNESEKPTTNSYLMQHQESIIQLQKAGLVRKHTKELERLKSVPADPAPPSRDGPASRLEASIPEESQDPAALHELGPLVMPSQAGSDEKSEAAPASLEGGSLKSPPPFFYRLDHTSSFSKDFLKTICYTPTSSSMSSNLTRSSSSDSIHSVRGKPGLVKQRTQEIETRLRLAGLTVSSPLKRSHSLAKLGSLTFSTEDLSSEADPSTVADSQDTTLSESSFLHEPQGTPRDPAATSKPSGKPAPENLKSPSWMSKS
# Variants of: B1
# Conditions: with limk1_human LIMK1, P53667
# Chain of limk1_human LIMK1, P53667 (P53667 whole entry, looked up): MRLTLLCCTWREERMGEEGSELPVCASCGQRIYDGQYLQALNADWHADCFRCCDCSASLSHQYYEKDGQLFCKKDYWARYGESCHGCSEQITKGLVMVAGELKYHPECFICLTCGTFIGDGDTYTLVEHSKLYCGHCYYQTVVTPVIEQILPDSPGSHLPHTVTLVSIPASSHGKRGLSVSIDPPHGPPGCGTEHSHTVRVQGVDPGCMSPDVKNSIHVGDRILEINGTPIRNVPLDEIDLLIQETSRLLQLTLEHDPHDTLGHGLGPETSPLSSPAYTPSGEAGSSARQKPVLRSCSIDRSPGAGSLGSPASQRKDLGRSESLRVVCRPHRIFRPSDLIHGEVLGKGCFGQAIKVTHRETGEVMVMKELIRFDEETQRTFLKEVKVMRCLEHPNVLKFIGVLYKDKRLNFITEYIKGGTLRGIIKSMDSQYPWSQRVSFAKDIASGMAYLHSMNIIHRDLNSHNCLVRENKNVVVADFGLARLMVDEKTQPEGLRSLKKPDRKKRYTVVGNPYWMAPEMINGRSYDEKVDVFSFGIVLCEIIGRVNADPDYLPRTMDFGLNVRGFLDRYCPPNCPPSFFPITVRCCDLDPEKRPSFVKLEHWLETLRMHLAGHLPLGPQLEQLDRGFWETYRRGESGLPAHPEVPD
row,effect of a mutation on the interaction,Variant
1,disrupting interaction,C393S
